Biological target: D76N-β2-microglobulin (UniProt P61769)
UniProt P61769, sequence (P61769 other isoform, or with tags, fused parts or gaps D76N | D76N): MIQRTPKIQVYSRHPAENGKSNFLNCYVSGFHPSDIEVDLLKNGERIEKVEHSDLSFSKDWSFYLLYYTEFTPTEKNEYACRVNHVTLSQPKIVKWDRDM

ThT fluorescence kinetics of seeded fibril growth of 20 μM D76N-β2m with 3% or 10% (w/w) fibril seeds and 10% (w/w) XL-Ds: fold increase in T (half): 1.6 fold
Substance: crosslinked dimers (XL-Ds) of D76N-β2m/S57C (from UniProt P61769 21-119) (complex)
